± gives the uncertainty stated by the source.
Assay: amyloid nucleation score (Sup35N fusion, yeast selection) (log enrichment); library NNK2; higher = more nucleation; inactive = no reads after selection
Summary of the method: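 For the nucleation score, DiMSum gave the log enrichment of output over input reads, centred on the mode score of non-aggregating sequences. Psi-negative yeast expressing Sup35N fused to peptides of 20 random codons were induced with 100 μM copper sulfate for 24 hours and grown 7 days at 30°C on medium lacking adenine and uracil. Input and output plasmid inserts were Illumina-sequenced, and sequences with under 100 input reads were excluded.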

Point of comparison: HWSLGSYFGYNFGR, amyloid nucleation score 5.67 ± 0.062. Against it:
- GSFLFYCILPIYFLGAWMRV — lower, -1.4 ± 0.78
- GSLTDLFGWDESCFRCTALC — lower, 3.79 ± 0.092
- GSMVLPIICNKIAYRSCSTI — lower, -0.828 ± 0.56
- GSPIESGVFNANLWPYDAYG — lower, -0.216 ± 0.41
- GSQGFPRRFSPSMPM — lower, 0.886 ± 0.8
- GSQVLCGLRLPARGFWSYIM — lower, 0.254 ± 0.3
- GSRDDSTVLVRKSSCRVEGS — lower, 0.665 ± 0.37
- GSRGMVFQMFT — lower, 0.94 ± 0.48
- GSRVALLNMGGK — lower, -0.512 ± 0.79
- GSRYLIGVEYE — lower, 0.319 ± 0.56
- GSSAYITLLHYEILNLRLLC — lower, 4.12 ± 0.079
- GSSVEMQLCELTSGGFDLSL — lower, 0.228 ± 0.32
- GSWLIEMCEVVSNSMTSMGP — lower, 1.29 ± 0.3
- GSYCQWIYF — lower, 1.99 ± 0.22
- GSYMS — lower, 3.54 ± 0.065
- GSYYCIDVGASRRPVWILSA — lower, 0.855 ± 0.48
- GTGIHLLLLVGSGDSSREMM — lower, -1.08 ± 0.36
- GTGINLSFLYFAAGVLCSSS — lower, -1.52 ± 1.1
- GTGMTYAIWLSGIGRMRFYY — lower, -0.816 ± 0.33
- GTLPYFKN — lower, -0.641 ± 0.74
- GTRSGSSDV — lower, 0.31 ± 0.5
- GTRYDT — lower, 0.468 ± 0.32
- GTSMCRELNVHNAWRGIHMG — lower, 0.615 ± 0.29
- GTVNKSMVTSLTVPLIVC — lower, 0.442 ± 0.28
- GTVTLV — lower, 3.99 ± 0.11
- GTYFNLYAGVLSVRQWPPHI — lower, 4.42 ± 0.061
- GVCFSFVFM — higher, 8.487 ± 0.064
- GVGEEGARVKWIVCNKCFFP — lower, 2.1 ± 0.12
- GVHMSDRVNTMSD — lower, -0.129 ± 1.1
- GVLYWALLDGGVQRGQDMKL — lower, 0.641 ± 0.62
- GVMIRKSARYYL — lower, -0.275 ± 0.79
- GVNSLVERFNLWYVLGERTF — lower, -0.35 ± 0.33
- GVRRRRIRRWLNVSGRYMCE — lower, 2.38 ± 0.23
- GVSSKKV — lower, 4.768 ± 0.047
- GVSVMKVLYLCTIDKALCFG — higher, 6.06 ± 0.068
- GVTLNSCFFNRVYLTLFGIN — higher, 6.946 ± 0.031
- GVVWKYRIFPWTFPHNFFHL — lower, -0.665 ± 0.39
- GVYPICV — lower, 0.416 ± 0.49
- GWAKPMGFNLILR — lower, 0.265 ± 0.31
- GWCRYLKDLYI — lower, -1.1 ± 0.36
- GWSMCRVSRLTMLVSVVFFC — lower, 0.377 ± 0.26
- GWSSSGVVIRVPGSFRLVGR — lower, 1.39 ± 0.45
- GWVLI — lower, -0.994 ± 1.1
- GYAVRRYDLMNLFRSMWASC — lower, -0.739 ± 0.79
- GYAYLSLHKA — lower, 0.342 ± 0.2
- GYCETNFGGCVPDWMEMLQR — higher, 6.67 ± 0.061
- GYCLSVTSR — lower, 0.641 ± 0.74
- GYDIISQKLGIQSYQKCTFI — lower, -1.86 ± 0.62
- GYGSSYLMQARSNRRISVFL — lower, -0.758 ± 0.79
- GYLQGLCRG — lower, -0.047 ± 1.1
- GYPSARIKSDMYWNPMNVPT — lower, -0.114 ± 0.37
- GYRLGHRRGGFGVLNGFYGD — lower, -0.157 ± 0.79
- GYVRRSIGYSLLSVVS — lower, -0.121 ± 0.46
- GYYRFLSSLLELTV — lower, -0.628 ± 0.76
- GYYYLFFILG — lower, 4.78 ± 0.075
- HAGMIYILYVNLRRTSKRMG — lower, 3.86 ± 0.072
- HAKTWM — lower, 0.066 ± 1
- HARVKLVIILLTLREGGMFW — lower, -0.108 ± 0.62
- HAYFFLRDRVRCSIFVIVTT — lower, -0.453 ± 0.78
- HAYSWNNRPVGVVRSRSRLF — lower, -0.597 ± 0.34
- HAYYHLILDVLFPDGLWL — lower, -0.938 ± 0.36
- HCFALGR — lower, 0.088 ± 0.21
- HCGFDQVLEGLTLR — lower, 0.097 ± 0.42
- HCKSDPWLEPTSVWVFIRLV — lower, 0.818 ± 0.23
- HCLGVFARFWIWVGPDGLVI — lower, -1.2 ± 0.78
- HCLIMGDNDGTLRTLGGR — lower, -0.104 ± 0.65
- HDYGLCTGVDIWITLSCCDR — higher, 9.637 ± 0.029
- HDYYMSVSLMGWY — lower, -1.02 ± 0.34
- HEGNKRARYLALLSEIYFQW — lower, 4.65 ± 0.084
- HERGTNVLYTLVEWGARAVS — lower, 1.16 ± 0.49
- HESHHSALFDCLGWQVLVWL — higher, 6.827 ± 0.049
- HFITCFLDRHGALVCYCSES — lower, 4.76 ± 0.11
- HFSYKPVEYPLFSRFKPVFN — lower, -0.025 ± 0.79
- HFWCLRCDTIHDSFNYSVVQ — higher, 7.373 ± 0.055
- HGDNFSEVATTFNCMMLLNV — lower, -0.243 ± 1.1
- HGDVIRCRTKIIIAVFGMFM — higher, 6.21 ± 0.076
- HGGFGYR — lower, -0.336 ± 0.49
- HGSQRFDFWGGYRYW — lower, 0.83 ± 0.13
- HHFNCCTGNFYIYKLDDSLI — lower, 5.485 ± 0.048
- HHIGGMIS — lower, -0.09 ± 0.3
- HHWRGALGFVCWGRFEERWV — lower, -0.567 ± 0.23
- HIAID — lower, 0.401 ± 0.56
- HIKDNQSSSV — lower, 0.196 ± 0.44
- HILICFWRVQVLKSACLYWT — lower, 1.74 ± 0.11
- HILRRINIWGGFPCMRVSKN — lower, -0.755 ± 1.1
- HIMSIDVPSNLSLQFIMVGY — lower, 0.306 ± 0.64
- HLCHLLRSEHCRNGGSEKSR — lower, 1.61 ± 0.29
- HLDYAGYIGDRSHTDFASGR — lower, 0.519 ± 0.46
- HLEMRPAMRIPLLRTDFWKV — lower, 0.665 ± 0.19
- HLGHKKVRWDMSAELWQ — lower, 2.75 ± 0.1
- HLTVFVDLSVRLRQMYRRYS — within error, 5.56 ± 0.069
- HLWGTKFMAFVARFV — lower, -0.12 ± 0.79
- HLWVWFRYSSRSFSHMLGDC — lower, 2.92 ± 0.15
- HLYMH — lower, 1.62 ± 0.18
- HMSCMSLSVIFDIILNLCSL — higher, 6.097 ± 0.06
- HNGSNFGTWSQGSLRHVRAR — lower, -0.023 ± 0.31
- HNVGILWSSCCSRMYIAYAY — lower, -0.288 ± 1
- HNVVRGFCLVFTIYHSGRTR — lower, 5.1 ± 0.082
- HPDDTMKFSSRTHITTQTDR — lower, 0.908 ± 0.52
- HQVFPAKAGLPALVYLLGFY — lower, 0.602 ± 0.81
- HRAWSSVCSKYSSTGTRNLI — lower, 2.99 ± 0.14
- HRFSGVVIYNINRSSTIGN — higher, 7.328 ± 0.04
- HRFSLRNHCRSFSSGHLVHN — lower, -1.24 ± 0.75
- HRRVVAPNKCWMSLACFWDL — lower, 4.33 ± 0.053
- HSAMFLYTKHVSPPGSWRVL — lower, 1.6 ± 0.13
- HSFPRCNSVHWPDDIGGCDG — lower, 4.58 ± 0.047
- HSFTTMFWNSAMY — lower, 4.11 ± 0.062
- HSLSWKCV — lower, 0.346 ± 0.74
- HSLVS — lower, -0.266 ± 1
- HSNPYRKLIQLTMTGITGTV — lower, 0.033 ± 0.48
- HTAMCAVSGFRNIWSKPVKF — lower, -0.817 ± 1.1
- HTITNTL — lower, -0.06 ± 1.1
- HTQSLVRVCWIYIRLPRSTP — lower, 0.393 ± 0.2
- HTSMWFL — lower, -0.145 ± 1.1
- HVYFSCAYWQPVYMYCCGKQ — higher, 7.771 ± 0.059
- HWKAFYL — lower, 1.13 ± 0.59
- HWKVENRLNSMEWKSMGGQN — lower, 3.97 ± 0.053
- HWLTKISGTTPELYPRERVV — lower, 0.071 ± 0.25
- HWYLRSV — lower, 0.239 ± 0.43
- HYCYRHIGRLQMWMKSGLHA — lower, 1.04 ± 0.34
- HYISRHQLWILFFVKCVNSR — lower, 5.01 ± 0.1
- HYLNIRQDPY — lower, 2.4 ± 0.21
- HYQWQYACLWRCVTVRGSDQ — lower, 0.949 ± 0.17
- HYSIIWTAS — lower, 0.233 ± 0.46
- HYVYFGYECAFGGG — lower, -0.365 ± 0.76
- HYWIVRLDAWVSQSVRWCNP — higher, 10.95 ± 0.079
- IAAMTFFMMCLTYCVLWIAW — lower, 1.71 ± 0.31
- IADIVQGSGVAT — lower, -0.178 ± 0.26
- IARFSKKTSVSMGTRCAT — lower, 0.122 ± 0.3
- ICGCKRSTVLWVSCFGV — lower, 3.18 ± 0.12
- ICIFHDWVIIICCSIRMRCL — lower, -0.823 ± 0.63
- ICKFFSIGVH — lower, 1.14 ± 0.68
- ICMAGEVGKQRGYLDGGMP — lower, 0.505 ± 0.54
- ICPPAWFKRVNDGGVYALNE — lower, 0.904 ± 0.48
- ICQCPVNTANTQLGVGTRLK — lower, 0.114 ± 0.5
- ICRNGLSL — lower, 0.098 ± 0.26
- ICSCTGTYVVRNRMTGTL — lower, -0.786 ± 0.49
- ICSSPLRIISINKLSGTYNL — lower, 2.25 ± 0.14
- ICWPSLLYAPGTVKMSTERV — lower, 0.706 ± 0.6
- IDCRELFVSLQVNRMLE — lower, 0.234 ± 0.49
- IDLFFAYSHRV — lower, 4.501 ± 0.044
- IENRLWIWSLH — lower, 0.673 ± 0.32
- IESSVCPGRRPGLLPTLKAG — lower, 0.901 ± 0.31
- IFAVGTTTASKCVWKIVEQE — lower, 2.09 ± 0.11
- IFDIWTSIAVRDLLLNGRSW — lower, 0.561 ± 0.31
- IFFVSDVESNIGRWLRRCFP — lower, 5.465 ± 0.054
- IFHLGLRR — within error, 5.706 ± 0.053
- IFISRVNDFTVMGGDWSFRG — lower, 3.64 ± 0.083
- IFKINVVVSSNTAQ — lower, 2.4 ± 0.21
- IFKQVTIYLYGGRSLLGSRR — lower, -0.507 ± 0.54
- IFPVLPGTLYRCTMMC — lower, -0.612 ± 0.32
- IFSLP — lower, -0.464 ± 0.5
- IFWAYAICCIYGLRGCRGEY — higher, 6.64 ± 0.084
- IFYSSLALVWLYNLMDRECT — lower, 2.18 ± 0.17

In the case of GTRGVVLISMSWRVDLHWKP, the amyloid nucleation score is reported as “inactive”.
In the case of GYYGARFLVFKFMVRRWMMT, the amyloid nucleation score is reported as “inactive”.
In the case of HCRYWVCCQLLVILTYSEAF, the amyloid nucleation score is reported as “inactive”.
With HCSCVKNSTSTDIEE the amyloid nucleation score was “inactive”.
For HDYVLFISECHKLLGAS, the amyloid nucleation score was “inactive”.
In the case of HIFFTDKFGGYVFLYPDFVA, the amyloid nucleation score is reported as “inactive”.
In the case of HLGVGFLWSVRFIYMTFGFS, the amyloid nucleation score is reported as “inactive”.
With HLYLEYGNVTWGWVMVLIVG the amyloid nucleation score was “inactive”.
In the case of HMYVGHGLNVFAYISMLGVY, the amyloid nucleation score is reported as “inactive”.
For HSDMFRKIQVLILSVERQNE, the amyloid nucleation score was “inactive”.
In the case of HSLLGPGPVPSYPQFSSPGR, the amyloid nucleation score is reported as “inactive”.
In the case of HVLHCTYSQSSMEQLFCFNW, the amyloid nucleation score is reported as “inactive”.
With ICRPGYGY the amyloid nucleation score was “inactive”.
For IDNEMYFAHGIRGDSLL, the amyloid nucleation score was “inactive”.
In the case of IDRCRNC, the amyloid nucleation score is reported as “inactive”.
In the case of IERPVRVHRYKT, the amyloid nucleation score is reported as “inactive”.
With IFFALNSTPPYYIYPEFKLQ the amyloid nucleation score was “inactive”.
